Results: IntAct's records for PubMed 18256029

Molecular target: pdcd6_human PDCD6 (UniProt O75340)
Sequence (O75340 whole entry): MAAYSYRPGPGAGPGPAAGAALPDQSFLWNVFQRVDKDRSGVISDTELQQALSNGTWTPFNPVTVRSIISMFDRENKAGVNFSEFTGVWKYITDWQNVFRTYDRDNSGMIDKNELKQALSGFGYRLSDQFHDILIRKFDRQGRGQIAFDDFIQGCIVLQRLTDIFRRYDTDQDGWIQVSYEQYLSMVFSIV

Chain of Phospholipid scramblase 3 (Homo sapiens), Q9NRY6 F49Y (Q9NRY6 whole entry F49Y): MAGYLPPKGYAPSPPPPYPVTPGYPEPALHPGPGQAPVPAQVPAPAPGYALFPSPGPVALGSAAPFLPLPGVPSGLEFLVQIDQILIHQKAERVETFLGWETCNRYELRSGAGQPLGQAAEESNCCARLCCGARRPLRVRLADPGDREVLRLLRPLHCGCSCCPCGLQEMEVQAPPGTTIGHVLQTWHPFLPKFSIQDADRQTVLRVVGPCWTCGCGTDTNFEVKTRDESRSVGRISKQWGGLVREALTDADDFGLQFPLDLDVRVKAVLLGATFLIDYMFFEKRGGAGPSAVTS
Chain of Phospholipid scramblase 3 (Homo sapiens), Q9NRY6 P43A;P45A;P47A;P53A (Q9NRY6 whole entry P43A/P45A/P47A/P53A): as the sequence (Q9NRY6 whole entry F49Y) above, with P43A, P45A, P47A, Y49F, P53A counted along it
Chain of Phospholipid scramblase 3 (Homo sapiens), Q9NRY6 F49A;F52A (Q9NRY6 whole entry F49A/F52A): as the sequence (Q9NRY6 whole entry F49Y) above, with Y49A, F52A counted along it
Chain of Phospholipid scramblase 3 (Homo sapiens), Q9NRY6 F49A (Q9NRY6 whole entry F49A): as the sequence (Q9NRY6 whole entry F49Y) above, with Y49A counted along it
Chain of Phospholipid scramblase 3 (Homo sapiens), Q9NRY6 F49L (Q9NRY6 whole entry F49L): as the sequence (Q9NRY6 whole entry F49Y) above, with Y49L counted along it

For “Phospholipid scramblase 3 (Homo sapiens), Q9NRY6 F49A”, the “effect of a mutation on the interaction” value was “decreasing interaction”.

In the case of “Phospholipid scramblase 3 (Homo sapiens), Q9NRY6 F49A;F52A”, the “effect of a mutation on the interaction” value is reported as “disrupting interaction”.

In the case of “Phospholipid scramblase 3 (Homo sapiens), Q9NRY6 F49L”, the “effect of a mutation on the interaction” value is reported as “decreasing interaction”.

“Phospholipid scramblase 3 (Homo sapiens), Q9NRY6 F49Y” was tested, and the “effect of a mutation on the interaction” value was “decreasing interaction”.

In the case of “Phospholipid scramblase 3 (Homo sapiens), Q9NRY6 P43A;P45A;P47A;P53A”, the “effect of a mutation on the interaction” value is reported as “decreasing interaction”.
